Data from patent US20250144141A1.

B1: M1302 (bispecific antibody, from a related filing, V domains shown)
VH: EVQLLESGGGSVQPGGSLRLSCTVSGFSLSNYAMSWVRQAPGKGLEWIGIVSSGGTTYYASWAKGRFTISKDTSKNTVYLQMNSLRAEDTASYYCAKDLYYGPNTDYSAANLWGQGTSVTVSS
VL: SYELTQPPSVSVSPGQTASITCTADTLSRSYASWYQQKPGQSPVLVIYRDTSRPSGIPERFSGSNSGNTATLTISGTQAMDEADYYCATRPSSGSNFQLFGGGTKLTVL
B2: M1041 (bispecific antibody, from a related filing, V domains shown)
VH: ESQVLESGGGSVQPGGSLRLSCTVSGFSLSNYAMSWVRQAPGKGLEYIGIVSSGGTTYYASWAKGRFTISKDTSKNTVYLQMNSLRAEDTASYYCAKDLYYGPTTYSAFNLWGQGTSVTVSS
VL: B1 VL

Legend:
[1] = molecular target: HLA-A*02:01/MAGE-A4 complex (human) (UniProt P04439); test: SPR
[2] = molecular target: HLA-A*02:01/MAGE-A4 complex (human) (UniProt P04439); test: SPR (Biacore T200), pMHC on streptavidin chip, 1:1 Langmuir fit

Row | Binder | Kd [1] [nM] | Kd [2] [nM]
1 | B1 | 0.6 | 0.6
2 | B2 | 0.25 | 0.24
